# In patent US20100196390A1 (RINAT NEUROSCIENCE, published 2010):
# Numbering of substitutions follows the chain as printed.
# B1: RN1026A (Fab, V domains shown)
# VH: QVQLVQSGAEVKKPGASVKVSCKASGYTFTNYDIIWVRQAPGQGLEWMGYINPYNRRREYNEKFKGRVTMTRDTSTSTVYMELSSLRSEDTAVYYCARLLKYRRFRYYAIDYWGQGTTVTVSS
# VL: DIQMTQSPSSLSASVGDRVTITCRASENVYSNLAWYQQKPGKAPKLLIYAASNLQSGVPSRFSGSGSGTDFTFTISSLQPEDIATYYCQHFWGSPFTFGQGTKLEIK
# notes: Fab
# B2: 4A6 (Fab, V domains shown)
# VH: B1 VH
# VL: B1 VL with R24H, F71Y
# notes: Fab
# B3: 16-E4 (Fab, V domains shown)
# VH: B1 VH with R56D, R57G, R58T, E59K
# VL: B1 VL with G93Y, F96W
# notes: Fab
# B4: A2 (Fab, V domains shown)
# VH: B1 VH with R56D, R57G, R58T, E59K
# VL: B1 VL with F71Y, G93Y, F96W
# notes: Fab
# B5: 16-A6 (Fab, V domains shown)
# VH: B1 VH with R56D, R57G, R58T, E59K
# VL: B1 VL with A25T, Q55A, S56D, G93A
# notes: Fab
# B6: A6-10 (Fab, V domains shown)
# VH: B1 VH with R57G
# VL: B1 VL with R24H, F71Y
# notes: Fab
# B7: A6-11 (Fab, V domains shown)
# VH: B1 VH with R58T
# VL: B1 VL with R24H, F71Y
# notes: Fab
# B8: 16-C3 (Fab, V domains shown)
# VH: B1 VH with R56D, R57G, R58T, E59K
# VL: B1 VL with H90Q, G93Y
# notes: Fab
# B9: T1-HuC1 (Fab, V domains shown)
# VH: B1 VH with R56D, R57G, R58T, E59K, R106S
# VL: B1 VL with Q55A, S56D, G93Y
# notes: Fab
# B10: 16-D6 (Fab, V domains shown)
# VH: B1 VH with R56D, R57G, R58T, E59K, R106K
# VL: B1 VL with Q55A, S56D, H90D, G93Y
# notes: Fab
# B11: A6-9 (Fab, V domains shown)
# VH: B1 VH with R56D, E59R
# VL: B1 VL with R24H, F71Y
# notes: Fab
# B12: 16-F4 (Fab, V domains shown)
# VH: B1 VH with R56D, R57G, R58T, E59K
# VL: B1 VL with Q55A, S56D, G93T
# notes: Fab
# B13: 16-H4 (Fab, V domains shown)
# VH: B1 VH with R56D, R57G, R58T, E59K
# VL: B1 VL with A25T, N28S, G93A
# notes: Fab
# B14: 16-C1 (Fab, V domains shown)
# VH: B1 VH with R56D, R57G, R58T, E59K, R106K
# VL: B1 VL with G93Y, F96W
# notes: Fab
# B15: C2 (Fab, V domains shown)
# VH: B1 VH with R56D, R57G, R58T, E59K
# VL: B1 VL with A25T, F71Y
# notes: Fab
# B16: 16-B7 (Fab, V domains shown)
# VH: B1 VH with R56D, R57G, R58T, E59K
# VL: B1 VL with Q55A, S56D, G93A
# notes: Fab
# B17: 4B12 (Fab, V domains shown)
# VH: B1 VH with R56G
# VL: B1 VL with N28P, L33V, F71Y
# notes: Fab
# B18: 16-G9 (Fab, V domains shown)
# VH: B1 VH with R56D, R57G, R58T, E59K
# VL: B1 VL with G93Y, T97G
# notes: Fab
# B19: 15-H1 (Fab, V domains shown)
# VH: B1 VH with R56D, R57G, R58T, E59K, R103A, R104C, Y107E, Y108E
# VL: B1 VL with G93E
# notes: Fab
# B20: 14-B1 (Fab, V domains shown)
# VH: B1 VH with R56D, R57G, E59K, Y60E
# VL: B1 VL with N28P, F71Y
# notes: Fab
# B21: 16-A10 (Fab, V domains shown)
# VH: B1 VH with R56D, R57G, R58T, E59K
# VL: B1 VL with A25T, G93Y, F96W
# notes: Fab
# B22: 15-G6 (Fab, V domains shown)
# VH: B1 VH with R56D, R57G, R58T, E59K, R106K
# VL: B1 VL with A25T, H90Q, G93Y
# notes: Fab
# Legend:
# TrkB [1] = biological target: T1, TrkB (Homo sapiens (Human), UniProt Q16620 32-430); test: koff of Fab at 37 C; T1/2=Log2/koff
# T1 sequence (Q16620 32-430 limits assumed): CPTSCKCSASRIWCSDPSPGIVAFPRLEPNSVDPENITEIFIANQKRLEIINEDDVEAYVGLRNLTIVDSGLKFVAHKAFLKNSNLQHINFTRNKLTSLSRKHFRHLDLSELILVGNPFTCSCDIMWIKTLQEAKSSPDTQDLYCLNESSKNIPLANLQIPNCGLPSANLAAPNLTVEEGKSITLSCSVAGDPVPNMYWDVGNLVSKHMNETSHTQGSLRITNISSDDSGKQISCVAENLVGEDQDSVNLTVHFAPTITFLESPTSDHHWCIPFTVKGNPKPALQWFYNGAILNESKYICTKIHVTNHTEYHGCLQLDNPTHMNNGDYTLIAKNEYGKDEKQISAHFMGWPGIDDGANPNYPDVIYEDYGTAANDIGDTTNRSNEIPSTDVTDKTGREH
# Outline: (§1)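 Monovalent Fab fragments were tested at 37° C by surface plasmon resonance on a Biacore instrument, against TrkB extracellular-domain monomer amine-coupled to the chip at low capacity. Fabs were injected low to high as a 3-fold serial dilution from 100 nM for 84 sec, with a 10 minute dissociation after the top sample. The dissociation half-life was calculated from koff, which was fitted to a Langmuir binding model in BIAevaluation. The formula used was T1/2 = Log 2/koff.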
# [2] = biological target: T2, human TrkB monomer (His ECD) (human, UniProt Q16620 32-430); test: Biacore, 37 C
# T2 construct: extracellular domain; amine-coupled to the chip
# T2 sequence (Q16620 32-430): as the sequence (Q16620 32-430 limits assumed) above
# Outline: as §1
# [3] = biological target: T3, rat TrkB monomer (His ECD) (rat, UniProt Q63604 32-429); test: SPR (Biacore), TrkB His ECD monomer on chip, 37 C
# T3 construct: extracellular domain; amine-coupled to the chip
# T3 sequence (Q63604 32-429): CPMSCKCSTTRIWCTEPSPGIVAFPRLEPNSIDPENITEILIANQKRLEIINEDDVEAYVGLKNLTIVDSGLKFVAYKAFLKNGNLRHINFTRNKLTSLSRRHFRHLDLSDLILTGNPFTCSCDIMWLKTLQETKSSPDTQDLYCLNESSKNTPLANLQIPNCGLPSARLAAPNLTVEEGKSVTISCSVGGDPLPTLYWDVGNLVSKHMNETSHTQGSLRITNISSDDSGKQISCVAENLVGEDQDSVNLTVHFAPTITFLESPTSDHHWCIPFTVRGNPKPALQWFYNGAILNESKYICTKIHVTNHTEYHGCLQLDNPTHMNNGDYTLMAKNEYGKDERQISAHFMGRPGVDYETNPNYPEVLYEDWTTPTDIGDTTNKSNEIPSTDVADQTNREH
# Procedure: (§2) TrkB monomers (H is ECD) of human, mouse, and rat were amine-coupled to the chip at levels of 2008, 1008, and 889RU respectively in an effort to give low capacity surfaces suitable for kinetic analysis. Fabs (C1, C2, A2, 4A6, and 4B12) were diluted to 100 nM (according to their labeled concentrations by NanoDrop, using 1AU=0.6 mg/mL) to give the top concentration of a 3 fold serial dilution. Samples were injected from low to high concentration as a titration series for 84 sec, allowing a 10 minute dissociation phase for the 100 nM sample. […] The full-length mouse anti-TrkB antibody 38B8-IgG was used as a (+) control to confirm that the chip was active.
# (§3) The concentrations of the Fab proteins are determined by ELISA and/or SDS-PAGE electrophoresis using a Fab of known concentration (as determined by amino acid analysis) as a standard. Kinetic association rates (kₒₙ) and dissociation rates (koff) (generally measured at 25° C. or 37° C.) are obtained simultaneously by fitting the data to a 1:1 Langmuir binding model (Karlsson, R. Roos, H. Fagerstam, L. Petersson, B., 1994 Methods Enzymology 6:99-110) using the BIAevaluation program. Equilibrium dissociation constant (KD) values are calculated as koff/kₒₙ.
# [4] = biological target: T4, mouse TrkB monomer (His ECD) (mouse, UniProt P15209 32-429); test: SPR (Biacore), TrkB His ECD monomer on chip, 37 C
# T4 construct: extracellular domain; amine-coupled to the chip
# T4 sequence (P15209 32-429): as the sequence (Q63604 32-429) above, with M3T, T9S, T10A, I32V, K63R, G84S, T153M, I185L, T394S counted along it
# Procedure: as §2, §3
# [5] = biological target: T2, human TrkB monomer (His ECD); test: SPR (Biacore), TrkB His ECD monomer on chip, 37 C
# Procedure: as §2, §3
# [6] = biological target: T3, rat TrkB monomer (His ECD); test: SPR (Biacore), Fab over amine-coupled TrkB His ECD monomer, 25 C
# Procedure: as §2, §3
# [7] = biological target: T4, mouse TrkB monomer (His ECD); test: as above
# Procedure: as §2, §3
# [8] = biological target: T2, human TrkB monomer (His ECD); test: as above
# Procedure: as §2, §3
# TrkB [9] = biological target: T1, TrkB; test: koff of Fab at 25 C; T1/2=Log2/koff
# Outline: as §1, with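 “25°” for “37°”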
# [10] = biological target: T2, human TrkB monomer (His ECD); test: Biacore, 25 C
# Outline: as §1, with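 “25°” for “37°”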
binder,measurement,setting,value
B1,T1/2,TrkB [1],4.5 min
same,T1/2,[2],4.53 min
same,Kd,[3],4 nM
same,koff,[3],0.00924 s⁻¹
same,kon,[3],1.41e+06 M⁻¹ s⁻¹
same,Kd,[4],2.27 nM
same,koff,[4],0.00396 s⁻¹
same,kon,[4],1.75e+06 M⁻¹ s⁻¹
same,Kd,[5],1.27 nM
same,koff,[5],0.00255 s⁻¹
same,kon,[5],2e+06 M⁻¹ s⁻¹
B2,Kd,[6],0.27 nM
same,koff,[6],0.000666 s⁻¹
same,kon,[6],2.45e+06 M⁻¹ s⁻¹
same,Kd,[7],0.02 nM
same,koff,[7],9.24e-05 s⁻¹
same,kon,[7],4.35e+06 M⁻¹ s⁻¹
same,Kd,[8],0.18 nM
same,koff,[8],0.000705 s⁻¹
same,kon,[8],3.89e+06 M⁻¹ s⁻¹
same,T1/2,TrkB [9],13.2 min
same,kon,[3],1.36e+06 M⁻¹ s⁻¹
same,Kd,[4],0.37 nM
same,koff,[4],0.00066 s⁻¹
same,kon,[4],1.76e+06 M⁻¹ s⁻¹
same,Kd,[5],0.17 nM
same,koff,[5],0.000372 s⁻¹
same,kon,[5],2.14e+06 M⁻¹ s⁻¹
B3,T1/2,TrkB [9],7 min
B4,Kd,[6],1.18 nM
same,koff,[6],0.00152 s⁻¹
same,kon,[6],1.29e+06 M⁻¹ s⁻¹
same,Kd,[7],0.51 nM
same,koff,[7],0.000636 s⁻¹
same,kon,[7],1.24e+06 M⁻¹ s⁻¹
same,Kd,[8],1.08 nM
same,koff,[8],0.00145 s⁻¹
same,kon,[8],1.34e+06 M⁻¹ s⁻¹
same,T1/2,TrkB [9],6 min
B5,T1/2,TrkB [9],1 min
B6,T1/2,TrkB [9],4 min
B7,T1/2,TrkB [9],9.9 min
B8,T1/2,TrkB [9],1 min
B9,T1/2,TrkB [9],1.7 min
B10,T1/2,TrkB [9],1 min
B11,T1/2,TrkB [9],11.8 min
B12,T1/2,TrkB [9],5 min
B13,T1/2,TrkB [9],6 min
B14,T1/2,TrkB [9],6 min
B15,Kd,[6],2.29 nM
same,koff,[6],0.00146 s⁻¹
same,kon,[6],638000 M⁻¹ s⁻¹
same,Kd,[7],1.44 nM
same,koff,[7],0.000734 s⁻¹
same,kon,[7],510000 M⁻¹ s⁻¹
same,Kd,[8],2.54 nM
same,koff,[8],0.0014 s⁻¹
same,kon,[8],552000 M⁻¹ s⁻¹
same,T1/2,TrkB [9],2.9 min
same,T1/2,[10],2.9 min
B16,T1/2,TrkB [9],5 min
B17,Kd,[6],0.41 nM
same,koff,[6],0.00081 s⁻¹
same,kon,[6],1.99e+06 M⁻¹ s⁻¹
same,Kd,[7],0.06 nM
same,koff,[7],0.000146 s⁻¹
same,kon,[7],2.38e+06 M⁻¹ s⁻¹
same,Kd,[8],0.21 nM
same,koff,[8],0.000532 s⁻¹
same,kon,[8],2.5e+06 M⁻¹ s⁻¹
same,T1/2,TrkB [9],12.8 min
B18,T1/2,TrkB [9],4 min
B19,T1/2,TrkB [9],2.1 min
B20,T1/2,TrkB [9],13 min
B21,T1/2,TrkB [9],6 min
B22,T1/2,TrkB [9],1.8 min
